Measured values: PMC3992434 (Developmental cell, 2013)

Target: MBP-LDLR tail wild-type (full-length LDLR tail fused to maltose-binding protein)
Assay: pull-down

B1: recombinant GST-His-tagged AP-1B core complex (γ, β1, μ1B, σ1) (complex)
chain 1: not shown
chain 2: MTDSKYFTTTKKGEIFELKAELNSDKKEKKKEAVKKVIASMTVGKDVSALFPDVVNCMQTDNLELKKLVYLYLMNYAKSQPDMAIMAVNTFVKDCEDPNPLIRALAVRTMGCIRVDKITEYLCEPLRKCLKDEDPYVRKTAAVCVAKLHDINAQLVEDQGFLDTLKDLISDSNPMVVANAVAALSEIAESHPSSNLLDLNPQSINKLLTALNECTEWGQIFILDCLANYMPKDDREAQSICERVTPRLSHANSAVVLSAVKVLMKFMEMLSKDLDYYGTLLKKLAPPLVTLLSAEPELQYVALRNINLIVQKRPEILKHEMKVFFVKYNDPIYVKLEKLDIMIRLASQANIAQVLAELREYATEVDVDFVRKAVRAIGRCAIKVEQSAERCVSTLLDLIQTKVNYVVQEAIVVIKDIFRKYPNKYESVIATLCENLDSLDEPEARAAMIWIVGEYAERIDNADELLESFLEGFHDKSTQVQLQLLTAFVKLFLKKPTETQELVQQVLSLATQDSDNPDLRDRGYIYWRLLSTDPVAAKEVVLAEKPLISEETDLIEPTLLDELICYIGTLASVYHKPPSAFVEG
chain 3: MSASAVFILDVKGKPLISRNYKGDVPMTEIDHFMPLLMQREEEGVLAPLLSHGRVHFLWIKHSNLYLVATTLKNANASLVYSFLYKTVEVFCEYFKELEEESIRDNFVIVYDLLDELMDFGFPQTTDSKILQEYITQQGNKLETGKSRVPPTVTNAVSWRSEGIKYKKNEVFIDVIESVNLLVNANGSVLLSEIVGTIKLKVFLSGMPELRLGLNDRVLFELTGRSKNKSVELEDVKFHQCVRLSRFDNDRTISFIPPDGDFELMSYRLSTQVKPLIWIESVIEKFSHSRVEIMVKAKGQFKKQSVANGVEISVPVPSDADSPRFKTSVGSAKYVPEKNVVIWSIKSFPGGKEYLMRAHFGLPSVETEEVEGRPPIGVKFEIPYFTVSGIQVRYMKIIEKSGYQALPWVRYITQSGDYQLRTS
chain 4: MIHFILLFSRQGKLRLQKWYITLPDKERKKITREIVQIILSRGHRTSSFVDWKELKLVYKRYASLYFCCAIENQDNELLTLEIVHRYVELLDKYFGNVCELDIIFNFEKAYFILDEFIIGGEIQETSKKIAVKAIEDSDMLQEVSTVCQTMGER
fold binding relative to AP-1A: ~5 fold
